Laboratory results as given in paper PMC3601957, “Structural Basis of Rap Phosphatase Inhibition by Phr Peptides” (PLoS Biology, 2013).
Positions count from the first letter of the chain named. No end group written: not given here.

What was measured:
[1] = target: T1, RapF^E303A (Bacillus subtilis, UniProt P71002, E303A); experiment: Gel shift (native PAGE) titration, apparent Kd, RapF^E303A; assay type: binding, B. subtilis
T1 construct: 6xHis (N, cleaved yes); made in house; host or cells: Escherichia coli BL21 RIL
Protocol: (§1) The formation of complexes was analyzed by native polyacrylamide gel electrophoresis (Native-PAGE), similarly to that described by Salinas et al.. Briefly, mixtures of RapF (WT and mutants), ComA (10 µM of each protein), or Phr peptides (0.5 mM), as indicated, were incubated in buffer A (200 mM NaCl, 50 mM Tris-HCl [pH 8.0]) at room temperature for 30 min, separated by Native-PAGE and visualized by Coomassie blue staining. The peptide binding constants for RapF, RapF^D194A, RapF^N227A, RapF^E303K, and RapF^E303A were calculated following the same approach. Reaction mixtures containing 20 µg of protein and peptide concentrations ranging from 50 nM to 1.2 mM in 20 µl of buffer A were incubated for 15 min at room temperature. Reactions were separated in 8% acrylamide native gel (100 V, 4°C, 2 h) and visualized by Coomassie blue staining. Free protein was quantified using the Multigauge V2.1 software (Fujifilm) and the fraction of bound protein was estimated by subtracting free protein from the input protein. Data were plotted as a fraction of the Phr bound protein versus the Phr concentration, and were analyzed by the Graphpad prism software. The midpoint of the transition was taken as the apparent Kd. To calculate the Kd values, at least three independent experiments were analyzed.

[2] = target: T2, RapF^N227A (Bacillus subtilis, UniProt P71002, N227A); experiment: Gel shift (native PAGE) titration, apparent Kd, RapF^N227A; assay type: binding, B. subtilis
T2 construct: 6xHis (N, cleaved yes); made in house; host or cells: Escherichia coli BL21 RIL
Protocol: as §1

[3] = target: T3, RapF (Bacillus subtilis, UniProt P71002); assay type: binding, B. subtilis; settings: wild-type RapF, at 12 µM PhrF; native PAGE titration
T3 construct: 6xHis (N, cleaved yes); made in house; host or cells: Escherichia coli BL21 RIL
Protocol: as §1

[4] = target: T4, RapF^D194A (Bacillus subtilis, UniProt P71002, D194A); experiment: Gel shift (native PAGE) titration, apparent Kd, RapF^D194A; assay type: binding, B. subtilis
T4 construct: 6xHis (N, cleaved yes); made in house; host or cells: Escherichia coli BL21 RIL
Protocol: as §1

[5] = target: T5, RapF (B. subtilis, UniProt P71002 1-381); experiment: native gel or EMSA; Native-PAGE, Coomassie stained; RapF (WT or mutant) and ComA 10 µM each, Phr peptides 0.5 mM; buffer A (200 mM NaCl, 50 mM Tris-HCl pH 8.0), room temperature, 30 min; settings: both partners purified
T5 construct: RapF of Bacillus subtilis, amplified from genomic DNA and cloned in pPROEX-HTa; The text speaks of residues up to Val381, which fits the whole protein; also called wild-type RapF; native RapF; source: E. coli BL21 RIL, purified (HisTrap, TEV digestion, Superdex 200); not shown: His6, N-terminal, cleaved
T5 sequence: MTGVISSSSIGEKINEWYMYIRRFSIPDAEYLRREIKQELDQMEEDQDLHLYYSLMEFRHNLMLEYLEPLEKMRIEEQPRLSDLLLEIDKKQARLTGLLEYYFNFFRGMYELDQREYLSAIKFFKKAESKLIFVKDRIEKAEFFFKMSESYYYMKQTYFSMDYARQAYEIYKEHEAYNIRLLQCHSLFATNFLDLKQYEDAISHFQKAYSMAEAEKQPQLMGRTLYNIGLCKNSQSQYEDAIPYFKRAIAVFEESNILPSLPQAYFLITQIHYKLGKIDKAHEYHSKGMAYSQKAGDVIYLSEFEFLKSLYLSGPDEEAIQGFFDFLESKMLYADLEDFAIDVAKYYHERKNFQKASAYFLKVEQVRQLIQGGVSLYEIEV

[6] = target: T6, RapF^E303K (B. subtilis, UniProt P71002 1-381, E303K); experiment: as above; settings: both partners purified
T6 construct: RapF of Bacillus subtilis with Glu303 changed to Lys, made from pPROEX-RapF by site-directed mutagenesis; Same construct as m1 with the point mutation; also called RapF Glu303Lys; source: E. coli BL21 RIL, purified as native RapF; not shown: His6, N-terminal, cleaved
T6 sequence: T5 sequence with E303K

[7] = target: T7, RapF^D194A (B. subtilis, UniProt P71002 1-381, D194A); experiment: as above; settings: both partners purified
T7 construct: RapF of Bacillus subtilis with Asp194 changed to Ala, made from pPROEX-RapF by site-directed mutagenesis; Same construct as m1 with the point mutation; also called RapF Asp194Ala; source: E. coli BL21 RIL, purified as native RapF; not shown: His6, N-terminal, cleaved
T7 sequence: T5 sequence with D194A

[8] = target: T8, RapF^E303A (B. subtilis, UniProt P71002 1-381, E303A); experiment: as above; settings: both partners purified
T8 construct: RapF of Bacillus subtilis with Glu303 changed to Ala, made from pPROEX-RapF by site-directed mutagenesis; Same construct as m1 with the point mutation; also called RapF Glu303Ala; source: E. coli BL21 RIL, purified as native RapF; not shown: His6, N-terminal, cleaved
T8 sequence: T5 sequence with E303A

[9] = target: T9, RapF^N227A (B. subtilis, UniProt P71002 1-381, N227A); experiment: as above; settings: both partners purified
T9 construct: RapF of Bacillus subtilis with Asn227 changed to Ala, made from pPROEX-RapF by site-directed mutagenesis; Same construct as m1 with the point mutation; also called RapF Asn227 to Ala mutant; RapF^N277A (misprint in the text); source: E. coli BL21 RIL, purified as native RapF; not shown: His6, N-terminal, cleaved
T9 sequence: T5 sequence with N227A

T2 sequence (P71002 whole entry N227A): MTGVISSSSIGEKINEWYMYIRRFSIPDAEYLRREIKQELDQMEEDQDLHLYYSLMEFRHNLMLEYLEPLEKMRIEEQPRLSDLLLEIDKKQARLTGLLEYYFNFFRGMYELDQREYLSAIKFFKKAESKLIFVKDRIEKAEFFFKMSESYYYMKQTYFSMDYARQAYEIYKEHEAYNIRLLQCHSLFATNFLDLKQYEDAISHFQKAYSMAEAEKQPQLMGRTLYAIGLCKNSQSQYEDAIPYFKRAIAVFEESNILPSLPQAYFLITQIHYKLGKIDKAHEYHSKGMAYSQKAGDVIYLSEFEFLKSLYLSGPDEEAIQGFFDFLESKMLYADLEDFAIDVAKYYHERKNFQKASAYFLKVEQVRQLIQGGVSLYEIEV
T4 sequence (P71002 whole entry D194A): as the sequence (P71002 whole entry N227A) above, with D194A, A227N counted along it

ERGMT [PhrC]
Kd [1]: > 1.2 mM

QRGMI [PhrF]
Kd [2]: > 1.2 mM
RapF present in the free form [3]: less than 30%
Kd [4]: > 1.2 mM

B1: ComA (natural protein, B. subtilis, UniProt P14204 1-214, looked up)
chain: MKKILVIDDHPAVMEGTKTILETDSNLSVDCLSPEPSEQFIKQHDFSSYDLILMDLNLGGEVNGMELSKQILQENPHCKIIVYTGYEVEDYFEEAIRAGLHGAISKTESKEKITQYIYHVLNGEILVDFAYFKQLMTQQKTKPAPSSQKEQDVLTPRECLILQEVEKGFTNQEIADALHLSKRSIEYSLTSIFNKLNVGSRTEAVLIAKSDGVL
notes: also called RR ComA; full-length ComA; source: E. coli BL21 RIL, purified (HisTrap, TEV digestion, Superdex 200); not shown: His6, N-terminal, cleaved
binding result [5]: binds
binding result [6]: binds
binding result [7]: binds
binding result [8]: binds
binding result [9]: binds
